{
  "source": "paper PMC6105893",
  "target": "T1, LeuO (rLeuO) (Vibrio vulnificus MO6-24/O?) (UniProt A0A087INQ4)",
  "T1 sequence": "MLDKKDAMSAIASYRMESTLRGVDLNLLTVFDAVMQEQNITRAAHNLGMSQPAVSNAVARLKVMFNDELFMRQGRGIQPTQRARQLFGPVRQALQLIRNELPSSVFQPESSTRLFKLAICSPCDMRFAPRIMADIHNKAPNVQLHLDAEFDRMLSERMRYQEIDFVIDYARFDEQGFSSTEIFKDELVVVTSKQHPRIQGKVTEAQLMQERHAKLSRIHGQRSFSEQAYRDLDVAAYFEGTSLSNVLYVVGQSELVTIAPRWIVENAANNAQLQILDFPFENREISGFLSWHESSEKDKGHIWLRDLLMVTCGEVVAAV",
  "assay": "EMSA",
  "conditions": "10 mM Tris-HCl pH 7.4, 10 mM KCl, 1 mM EDTA, 0.1 mM DTT, 50 ug/ml BSA, 5% glycerol, 1 ug poly(dI-dC), 10 ng probe in 20 ul, 30 min at 37 C; 6% neutral …",
  "data": [
    {"sequence": "GAGTTTGACGCTAAAAAATAGTGATGTGCAGCAAAAATAAGTAAAAGTTTACGCTGATAGGCTCGAAAAGGCTTGTCAGCGTTTTTTTTGGGAGCTAAGTTAGAGCTCGATGGCTGCCAGCCCTTTTAAGATAAGGCTTGGCGCTAATTTTTAGTATTAATGGAACGAAAGTCATCTAAAAAAATAATCACAGATGGCACAAAGGGGAATCACAGTGAACAAAACTCAACTAGTAGAATCAATCGCTGCAAACGCAGAT (double strand) [vhuB upstream region]", "values": [
      {"measurement": "binding", "value": "binds"}
    ]}
  ]
}
